Test: soluble on expression in E. coli; label from the status in PepcDB or PDB records

Row | Sequence | soluble on expression in E. coli
1 | KTNTATVKVLPISMSDEGDSFLVKDSLGENKIPKNPSKVVILDLGILDTFDALKLNDKVVGVPAKNLPKYLQQFKNKPSVGGVQQVDFEAINALKPDLIIISGRQSKFYDKLKEIAPTLFVGLDNANFLSSFENNVLSVAKLYGLEKEALEKISDIKNEIEKAKSIVDEDKKALIILTNSNKISAFGPQSRFGIIHDVLGINAVDENIKVGTHGKSINSEFILEKNPDYIFVVDRNVILGNKERAQGILDNALVAKTKAAQNKKIIYLDPEYWYLASGNGLESLKTMILEIKNAVK | soluble
2 | MTKQYLTHRCLIAPPEMADDFFANTVIYLARHDDEGAQGLIINRPSGIQVRELLNDLDIEADHVQPHEVLQGGPLRPEAGFVLHTGQPVWHSSIAVGENLCITTSKDILDAIAHNEGVGRYQIALGYASWTKNQLEGEISRGDWLICDADMDLIFNLPYDERWDAAYKKLGVDRIWLSSEIGHALEHHHHHH | soluble
3 | MSLNTQDFLAGYTKRFVDNKEEDMSLDEYLELCKTDPTAYANPAERLLMAIGEPELIDTRHDPVLSRIFSNKIIHHYEVFEDFYGMEEPIEQIVGFLKHAAQGLEETKQVLYLLGPVGGGKSSIAEKLKDLMERVPFYAIKGSPVFESPLSLFNPQEDGELLRERFGIPTRYLRYLMSPWAVKRLQEYNGDISKFRVIKVKPSRLKQIAIAKTEPGDENNQDISSLVGKVDIRKLEEFSQDDPDAYSYSGGLCRANRGLLEFVEMFKAPIKVLHPLLTATQEGNYNATEGLSAIPFEGIILAHSNESEWQSFRNNKNNEAFIDRINIVKVPYCLRVSEEIKIYQKLIHNSSLANAPCAPGTLDMLAQFSVLTRLKEPQNSSIYSKMRVYNGESLKDTDPKAKSYQEYRDFAGVDEGMSGISTRFAFKILSKVFNFDHTEVAANPVHLMYVLERQIEQEQFPQELHETYLNFIKEYLATKYVDFIGKEIQTAYLESYSEYGQNIFDRYITYADFWIQDQDYRDPDTGEIFDRALLNLELEKIEKPAGISNPKDFRNEVVNFVLRARANNRGKNPVWNSYEKLKSVIEKKMFTNTEDLLPVISFNAKASEEDKKKHEEFISRMVEKGYTRKQVRLLCEWYLRVRKSQEGHHHHHH | soluble
4 | MTPGFPLPKPDVLSRPFWDFAQRGVLSLQRCRHCGDVHFPAAPVCPACLSEQQEWVPASGRGTLFSWCEFHKGYWDSVASLLPYRVAVIKLNEGPLLISNLVDVADCAALRADAPVEVVFRPVSADINLPVFRLRHAY | not soluble
5 | GPALVKQSHPKNPNDKHRSKKCKDPKPRVKKLKYHQYIPPDQKGEKNEPQMDSNYARLLQQQQLFLQLQILSQQKQHYNYQTILPAPFKPLNDKNSNSGNSALNNATPNTPRQNTSTPVRKPGPLPSSLDDLKVSELKTELKLRGLPVSGTKPDLIERLKPYQEVNSSGLAAGGIVAVSSSAIVTSNPEVTVALPVTTLHNTVTSSVSTLKAELPPTGTSNATRVENVHSPLPISPSPSEQSSLSTDDTNMADTFTEIMTMMSPSQFLSSSPLRMTNNEDSLSPTSSTLSNLELDAAEKDRKLQEKEKQIEELKRKLEQEQKLVEVLKMQLEVEKRGQQQRPLEAQPSAPGHSVKSDQKHGSLGSSIKDEASLPDCSSSRQPIPVASHAVGQPVSTGGQTLVAKKAVVIKQEVPVGQAEQQSVVSQFYVSSQGQPPPAVVAQPQALLTTQTAQLLLPVSIQGSSVTSVQLPVGSLKLQTSPQAGMQTQPQIATAAQIPTAALASGLAPTVPQTQDTFPQHVLSQPQQVRKVFTNSASSNTVLPYQRHPAPAVQQPFINKASNSVLQSRNAPLPSLQNGPNTPNKPSSPPPPQQFVVQHSLFGSPVAKTKDPPRYEEAIKQTRSTQAPLPEISNAHSQQMDDLFDILIKSGEISLPIKEEPSPISKMRPVTASITTMPVNTVVSRPPPQVQMAPPVSLEPMGSLSASLENQLEAFLDGTLPSANEIPPLQSSSEDREPFSLIEDLQNDLLSHSGMLDHSHSPMETSETQFAAGTPCLSLDLSDSNLDNMEWLDITMPNSSSGLTPLSTTAPSMFSADFLDPQDLPLPWD | soluble
6 | GSVPVILEVAGIGKYAISIGGERQEGLTEEMVTQLSRQEFDKDNNTLFLVGGAKEVPYEEVIKALNLLHLAGIK | soluble
7 | MPRVDHGSPQAGPPAPCVGILLAGGQGRRFAAASGGQDKLLARLADGTAVAVRAAAALREATDAVVAVVRPESAVLAALLRGQGCHVLESEQAREGMGASLAAAARFLLAGQVPDMPERADVCLVALADMPWVRRDTLSAVRAAACADGITVPVHQGRRGHPVAFGRSLWGELAALRGDVGARELLRRHRVAAVEVDDPGVAADVDTPGDLAGDRALEHHHHHH | not soluble
8 | MSACAPVHRDPPAPASLRAMPGARWLSGVVLGGLSLGLMACGPKDIEGLRTADYLGGDQRSGVLTYRETPPMGGPYNPLWQTCAAYAQPVYNEYAVHSLARGAVWVTYRPGLDAAELDKLKALLAGQPAALLSPYPNLPAPVVMTAWNRQLSAQTADDPRLTRFLKEILPENSAPEKGSPCARGFGGTR | soluble
9 | MGSDKIHHHHHHMASHNTTHQMKTLCSSCSLRELCLPVGLLPNELSQLDAVIRQSRRLKKGEYLFCVGEAFTSLFAIRSGFFKTTVASQDGRDQVTGFFMSGELIGMDGICSHVHSCDAVALEDSEVCELPFTHIEELGQNIPSLRTHFFRMMSREIVRDQGVMLLLGNMRAEERIAAFLLNLSQRLYSRGFAANDFILRMSREEIGSYLGLKLETVSRTLSKFHQEGLISVEHKHIKILNLQVLKKMVSGCSHAI | not soluble
10 | SREAVTVQVGGFANYVGSYFWNFQDELLGLADDPDADPVFKNAALDMDVLYRSGETHQGVATYCPRLVSVDSRGSLGSLSSSGNLGQSSTAADQLNVATWSGNVTRSVSKPHGRNLFLQSLVEEGQNPSTSNGGSNSQKSVEYKDLIECLENGINFWTDYSKVHYHPQSLYELYGSWTDFDKFDNYGSAQEVVSDWSQIEEMNERLRFFVEECDHIQGIQFIVDDSGGFSSVAAQFLENIADDYTNTLVLLYCVRDPMTLGPSRRNQRESIMRALHDAVSFSKLSSFCNLMVPIGPPSLSRSCMSPYLYIQDEKPFHASAVCAAAIHSITVPFRLQRTGPSSDLAHSSGNLDIGELVHILSDQGRQNMVTALDVAMPAPSLTDRDAMGNIEMKLHSLTPEISDEDEDPYSVESLVVHGALDRGGQRTSISQVKDSVCSVYEARETKPKFSHLSASLCPLPVPLPFPSIFRGNIGRHGEILSDHTEESQPKGSLDIESIPMAARLRSSSAVLPFIERRSGSLQKHGVARGAIGSLVLHDWGFGREEVEDMAEHLAKLLGPFHPEMDLTSDSD | soluble
11 | AVEPKEDTITVTAAPAPQESAWGPAATIAARQSATGTKTDTPIQKVPQSISVVTAEEMALHQPKSVKEALSYTPGVSVGTRGASNTYDHLIIRGFAAEGQSQNNYLNGLKLQGNFYNDAVIDPYMLERAEIMRGPVSVLYGKSSPGGLLNMVSKRPTTEPLKEVQFKAGTDSLFQTGFDFSDSLDDDGVYSYRLTGLARSANAQQKGSEEQRYAIAPAFTWRPDDKTNFTFLSYFQNEPETGYYGWLPKEGTVEPLPNGKRLPTDFNEGAKNNTYSRNEKMVGYSFDHEFNDTFTVRQNLRFAENKTSQNSVYGYGVCSDPANAYSKQCAALAPADKGHYLARKYVVDDEKLQNFSVDTQLQSKFATGDIDHTLLTGVDFMRMRNDINAWFGYDDSVPLLNLYNPSSHHHHHHGSSVNTDFDFNAKDPANSGPYRILNKQKQTGVYVQDQAQWDKVLVTLGGRYDWADQESLNRVAGTTDKRDDKQFTWRGGVNYLFDNGVTPYFSYSESFEPSSQVGKDGNIFAPSKGKQYEVGVKYVPEDRPIVVTGAVYNLTKTNNLMADPEGSFFSVEGGEIRARGVEIEAKAALSASVNVVGSYTYTDAEYTTDTTYKGNTPAQVPKHMASLWADYTFFDGPLSGLTLGTGGRYTGSSYGDPANSFKVGSYTVVDALVRYDLARVGMAGSNVALHVNNLFDREYVASCFNTYGCFWGAERQVVATATFRF | soluble
12 | MGRKWNNIKEKKASKDANTSRIYAKFGREIYVAAKQGEPDPESNQALKVVLERAKTYSVPKNIIERAIEKAKGGAEENYDELRYEGFGPNGSMIIVDALTNNVNRTAPEVRAAFGKNGGNMGVSGSVAYMFDATAVIVVEGKTADEALEILMEADVDVRDILEEDDSAKSCYAEPDQFHAVQEAFKNAGVEEFTVAELQMLAQSEVTLPDDAKEQFEKLIDALEDLEDVQQVYHNVDLGELEHHHHHH | soluble
13 | MGSDKIHHHHHHMNDLKRLPYEPVKGLLPRPAVGTSERVITLPEPDRTSGMPLMGTLWLRKSTREFDQQPLPLKQLSELLWAAAGVNRSLGGGRTAPSPYGETVIDVYVALPAGLYRYDPVHHCLELKRAADLRSMTGYQDFVGMAPLDLVFVANHGRMQEMPPKLRETFSAAAAGAMAENAYLYCASAGLGAVVRGWLNRRQLAEHMSLNEDEEPILSQTIGRAASHVTTTQA | not soluble
14 | SLDVCRGMLCGFGAVCEPSVEDPGRASCVCKKNVCPAMVAPVCGSDASTYSNECELQRAQCNQQRRIRLLRQGPCGSRDPCANVTCSFGSTCVPSADGQTASCLCPTTCFGAPDGTVCGSDGVDYPSECQLLRHACANQEHIFKKFDGPCDPCQGSMSDLNHICRVNPRTRHPEMLLRPENCPAQHTPICGDDGVTYENDCVMSRIGAARGLLLQKVRSGQCQT | soluble
15 | ISISRADLAFDLFEVDCSEFVLEKKGRPTATKEFRSSTGTLETKYLGAPRSEKQVRLYNKKKEQLQNGTDKDKDFASQFKHWWRLEFQLRSRSIDEIFEVIDTIIFKPFNLKGLSIETQIYLTALIHDKNIWKKLHRNTRARYKKILETHQTSDTDYLGLLKDLLKHERPRLENQLAYYGGRIDKNSFQPFC | not soluble
16 | SLNKKFSYPIPNFTDRRKSIIFWRYLRFQARKILYFPQVRLLEKTLNKEKNKHLKDFFSQRPYACYNATRRFCDKSFKANERVKTLIYDVDKGLACFKFLPEEQIIFSFDEDFELFLGYNYNVCEEGFWAFSLKFKKYTILQCNFCFTLENNLLLSCIQGHKYKDFNILEINKILTKKCHGLRPVALLIECSKMLCEILKLQTTLGVHEKNQIRSQKGKEKGYFVDYQKIWLENGGELIKINKHKYYKLHHSQKNLEEIPSQKRSMYKKRFAMLEEIKTNLDKTLSIQD | not soluble
17 | MGSDKIHHHHHHMTVSNPAKSIRIGTMISGNNGDAATRIREIAGLGFESFEPFFWQTTKGQNLAELGKRCVDAIGDRDITISTLGMFGNPLEETDIDLETLEGWKQCIDNAHHFGASCVAGFTGRLRGKVLTDSLPRYREIWSELAKRAADKGIRIAFENCAMDGNWQSGDWNIAHNPDAWELMFNETPDDNIGLEWEPCHQMVYLIDPLPQIRKWASKIFHVHGKDATIRWDVIREHGIFGKEPFVFMRTPGFGDSNWTNVISELRLAGYSGSIDIEGWHDPVYRDALEMTGQVHALNHLKQARGGDFIDEMAAYGGGDPSLK | not soluble
18 | MTFRPFWLDQALRSEHAAPCPPLAGDTRADVCIVGGGYTGLWTAIMLKEHDPGLDVVLVEADLCGAGASGRNGGCALSWSAKFFTLERLFGLTEAIRLVKASEDSIRAIGAFCQRYDVEADYRLDGTLYTATNPAQVGSTDSVIAALERHGINSFAKRPLADVQRLAGSRRHLEGWFSPAAATVQPGKLVRGLRRVALQLGVRLYEGTPMRGLEHGRPAEVVTPHGRVVAGRVVLALNAWMARAFPQFERSVAIVSSDMLITEPRPDLLQEIGLTSGVSVLDSRIFVHYYHNTPDGRLMLGKGGNTFAYGGRMLPVFDRPSPYLGQLRGSLREFFPEFAEVAIEASWNGPSDRSVTGLPFFGRLDGRDNVFYGFGYSGSGVGPCHMGGQILSSLALGLDNPWTRSPLTQGPLGRFPPEPIRYVGSLMVRNAIRRKEHAEDAGRRPRHLDVRLARFAAAAGKADKGLEHHHHHH | not soluble

Source: the DeepSol protein solubility set
